Assay results as given in the supplement of paper PMC5998384.

Tests used:
HeLa Kyoto [1] = experiment: melting temperature (median over replicates), in situ; higher = more thermally stable
HeLa Kyoto [2] = experiment: solubility change mitosis vs G1/S (difference of NP-40 vs SDS log2 ratios) (log2 ratio difference); higher = more soluble in mitosis
HeLa Kyoto [3] = experiment: thermal stability score vs G1/S (z-score of summed log2 fold changes over temperatures); higher = more thermally stable than in G1/S
HeLa Kyoto [4] = experiment: solubility in G1/S (NP-40 vs SDS abundance) (log2 ratio); higher = more soluble; conditions: cell cycle stage: G1/S
[5] = cell cycle stage: early G1 (4.5 h after nocodazole release)
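Throughout, for melting temperature (median over replicates), in situ: HeLa Kyoto cells synchronized by double thymidine or nocodazole block, proteins quantified by TMT10plex mass spectrometry, three independent biological replicates.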
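Throughout, for solubility change mitosis vs G1/S (difference of NP-40 vs SDS log2 ratios): synchronized HeLa Kyoto cells (double thymidine block for G1/S, nocodazole release for mitosis), protein amounts in NP-40 versus SDS lysates quantified by mass spectrometry, three biological replicates.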
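Throughout, for solubility in G1/S (NP-40 vs SDS abundance): HeLa Kyoto cells arrested at G1/S by double thymidine block, proteins quantified by TMT10plex mass spectrometry in mild NP-40 versus SDS extracts, three biological replicates.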
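Throughout, for thermal stability score vs G1/S (z-score of summed log2 fold changes over temperatures): synchronized HeLa Kyoto cells, proteins quantified by TMT10plex mass spectrometry, three biological replicates, mitosis taken 0.5 h after nocodazole release, G1/S directly after double thymidine block.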

Chain of PRSS21 (chain, as listed by the source): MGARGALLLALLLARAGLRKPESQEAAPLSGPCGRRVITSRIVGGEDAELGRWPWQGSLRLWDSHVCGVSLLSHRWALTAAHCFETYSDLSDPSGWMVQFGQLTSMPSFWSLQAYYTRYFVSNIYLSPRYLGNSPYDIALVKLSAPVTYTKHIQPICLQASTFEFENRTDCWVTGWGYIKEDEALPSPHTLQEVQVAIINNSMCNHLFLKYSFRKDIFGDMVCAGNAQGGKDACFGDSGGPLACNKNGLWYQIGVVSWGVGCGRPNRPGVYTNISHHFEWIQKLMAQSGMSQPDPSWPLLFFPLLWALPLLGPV

Substance | melting temperature (HeLa Kyoto [1]; cell cycle stage: G1/S) | melting temperature (HeLa Kyoto [1]; cell cycle stage: mitosis) | solubility change mitosis (log2) (HeLa Kyoto [2]) | thermal stability score (HeLa Kyoto [3]; [5]) | thermal stability score (HeLa Kyoto [3]; cell cycle stage: mitosis) | solubility in G1/S (log2) (HeLa Kyoto [4])
MDSALSDPHNGSAEAGGPTNSTTRPPSTPEGIALAYGSLLLMALLPIFFGALRSVRCARGKNASDMPETITSRDAARFPIIASCTLLGLYLFFKIFSQEYINLLLSMYFFVLGILALSHTISPFMNKFFPASFPNRQYQLLFTQGSGENKEEIINYEFDTKDLVCLGLSSIVGVWYLLRKHWIANNLFGLAFSLNGVELLHLNNVSTGCILLGGLFIYDVFWVFGTNVMVTVAKSFEAPIKLVFPQDLLEKGLEANNFAMLGLGDVVIPGIFIALLLRFDISLKKNTHTYFYTSFAAYIFGLGLTIFIMHIFKHAQPALLYLVPACIGFPVLVALAKGEVTEMFSYEESNPKDPAAVTESKEGTEASASKGLEKKEK [HM13] | 60.5 °C | 59.8 °C | -0.167 | -1.07 | -1.15 | -0.106
MAAAAASLRGVVLGPRGAGLPGARARGLLCSARPGQLPLRTPQAVALSSKSGLSRGRKVMLSALGMLAAGGAGLAMALHSAVSASDLELHPPSYPWSHRGLLSSLDHTSIRRGFQVYKQVCASCHSMDFVAYRHLVGVCYTEDEAKELAAEVEVQDGPNEDGEMFMRPGKLFDYFPKPYPNSEAARAANNGALPPDLSYIVRARHGGEDYVFSLLTGYCEPPTGVSLREGLYFNPYFPGQAIAMAPPIYTDVLEFDDGTPATMSQIAKDVCTFLRWASEPEHDHRKRMGLKMLMMMALLVPLVYTIKRHKWSVLKSRKLAYRPPK [CYC1] | 54.5 °C | 53.5 °C | -0.106 | -5.79 | -6.58 | 0.869
MTAPCSQPAQLPGRRQLGLVPFPPPPPRTPLLWLLLLLLAAVAPARGWESGDLELFDLVEEVQLNFYQFLGVQQDASSADIRKAYRKLSLTLHPDKNKDENAETQFRQLVAIYEVLKDDERRQRYDDILINGLPDWRQPVFYYRRVRKMSNAELALLLFIILTVGHYAVVWSIYLEKQLDELLSRKKREKKKKTGSKSVDVSKLGASEKNERLLMKPQWHDLLPCKLGIWFCLTLKALPHLIQDAGQFYAKYKETRLKEKEDALTRTELETLQKQKKVKKPKPEFPVYTPLETTYIQSYDHGTSIEEIEEQMDDWLENRNRTQKKQAPEWTEEDLSQLTRSMVKFPGGTPGRWEKIAHELGRSVTDVTTKAKQLKDSVTCSPGMVRLSELKSTVQNSRPIKTATTLPDDMITQREDAEGVAAEEEQEGDSGEQETGATDARPRRRKPARLLEATAKPEPEEKSRAKRQKDFDIAEQNESSDEESLRKERARSAEEPWTQNQQKLLELALQQYPRGSSDRWDKIARCVPSKSKEDCIARYKLLVELVQKKKQAKS [DNAJC1] | 52.8 °C | 52.8 °C | -0.0698 | 1.18 | 1.18 | 0.161
PRSS21 | 52.9 °C | 52.9 °C | -0.176 | 0.469 | 0.197 | 0.0531
MEGSEPVAAHQGEEASCSSWGTGSTNKNLPIMSTASVEIDDALYSRQRYVLGDTAMQKMAKSHVFLSGMGGLGLEIAKNLVLAGIKAVTIHDTEKCQAWDLGTNFFLSEDDVVNKRNRAEAVLKHIAELNPYVHVTSSSVPFNETTDLSFLDKYQCVVLTEMKLPLQKKINDFCRSQCPPIKFISADVHGIWSRLFCDFGDEFEVLDTTGEEPKEIFISNITQANPGIVTCLENHPHKLETGQFLTFREINGMTGLNGSIQQITVISPFSFSIGDTTELEPYLHGGIAVQVKTPKTVFFESLERQLKHPKCLIVDFSNPEAPLEIHTAMLALDQFQEKYSRKPNVGCQQDSEELLKLATSISETLEEKPDVNADIVHWLSWTAQGFLSPLAAAVGGVASQEVLKAVTGKFSPLCQWLYLEAADIVESLGKPECEEFLPRGDRYDALRACIGDTLCQKLQNLNIFLVGCGAIGCEMLKNFALLGVGTSKEKGMITVTDPDLIEKSNLNRQFLFRPHHIQKPKSYTAADATLKINSQIKIDAHLNKVCPTTETIYNDEFYTKQDVIITALDNVEARRYVDSRCLANLRPLLDSGTMGTKGHTEVIVPHLTESYNSHRDPPEEEIPFCTLKSFPAAIEHTIQWARDKFESSFSHKPSLFNKFWQTYSSAEEVLQKIQSGHSLEGCFQVIKLLSRRPRNWSQCVELARLKFEKYFNHKALQLLHCFPLDIRLKDGSLFWQSPKRPPSPIKFDLNEPLHLSFLQNAAKLYATVYCIPFAEEDLSADALLNILSEVKIQEFKPSNKVVQTDETARKPDHVPISSEDERNAIFQLEKAILSNEATKSDLQMAVLSFEKDDDHNGHIDFITAASNLRAKMYSIEPADRFKTKRIAGKIIPAIATTTATVSGLVALEMIKVTGGYPFEAYKNCFLNLAIPIVVFTETTEVRKTKIRNGISFTIWDRWTVHGKEDFTLLDFINAVKEKYGIEPTMVVQGVKMLYVPVMPGHAKRLKLTMHKLVKPTTEKKYVDLTVSFAPDIDGDEDLPGPPVRYYFSHDTD [UBA6] | 50.7 °C | 49.8 °C | -0.192 | -0.786 | -0.409 | 0.00865
MGSPEGRFHFAIDRGGTFTDVFAQCPGGHVRVLKLLSEDPANYADAPTEGIRRILEQEAGMLLPRDQPLDSSHIASIRMGTTVATNALLERKGERVALLVTRGFRDLLHIGTQARGDLFDLAVPMPEVLYEEVLEVDERVVLHRGEAGTGTPVKGRTGDLLEVQQPVDLGALRGKLEGLLSRGIRSLAVVLMHSYTWAQHEQQVGVLARELGFTHVSLSSEAMPMVRIVPRGHTACADAYLTPAIQRYVQGFCRGFQGQLKDVQVLFMRSDGGLAPMDTFSGSSAVLSGPAGGVVGYSATTYQQEGGQPVIGFDMGGTSTDVSRYAGEFEHVFEASTAGVTLQAPQLDINTVAAGGGSRLFFRSGLFVVGPESAGAHPGPACYRKGGPVTVTDANLVLGRLLPASFPCIFGPGENQPLSPEASRKALEAVATEVNSFLTNGPCPASPLSLEEVAMGFVRVANEAMCRPIRALTQARGHDPSAHVLACFGGAGGQHACAIARALGMDTVHIHRHSGLLSALGLALADVVHEAQEPCSLLYAPETFVQLDQRLSRLEEQCVDALQAQGFPRSQISTESFLHLRYQGTDCALMVSAHQHPATARSPRAGDFGAAFVERYMREFGFVIPERPVVVDDVRVRGTGRSGLRLEDAPKAQTGPPRVDKMTQCYFEGGYQETPVYLLAELGYGHKLHGPCLIIDSNSTILVEPGCQAEVTKTGDICISVGAEVPGTVGPQLDPIQLSIFSHRFMSIAEQMGRILQRTAISTNIKERLDFSCALFGPDGGLVSNAPHIPVHLGAMQETVQFQIQHLGADLHPGDVLLSNHPSAGGSHLPDLTVITPVFWPGQTRPVFYVASRGHHADIGGITPGSMPPHSTMLQQEGAVFLSFKLVQGGVFQEEAVTEALRAPGKVPNCSGTRNLHDNLSDLRAQVAANQKGIQLVGELIGQYGLDVVQAYMGHIQANAELAVRDMLRAFGTSRQARGLPLEVSSEDHMDDGSPIRLRVQISLSQGSAVFDFSGTGPEVFGNLNAPRAVTLSALIYCLRCLVGRDIPLNQGCLAPVRVVIPRGSILDPSPEAAVVGGNVLTSQRVVDVILGAFGACAASQGCMNNVTLGNAHMGYYETVAGGAGAGPSWHGRSGVHSHMTNTRITDPEILESRYPVILRRFELRRGSGGRGRFRGGDGVTRELLFREEALLSVLTERRAFRPYGLHGGEPGARGLNLLIRKNGRTVNLGGKTSVTVYPGDVFCLHTPGGGGYGDPEDPAPPPGSPPQALAFPEHGSVYEYRRAQEAV [OPLAH] | 51.1 °C | 51.3 °C | -0.171 | -0.162 | -0.669 | 0.0511
MSALLRLLRTGAPAAACLRLGTSAGTGSRRAMALYHTEERGQPCSQNYRLFFKNVTGHYISPFHDIPLKVNSKEENGIPMKKARNDEYENLFNMIVEIPRWTNAKMEIATKEPMNPIKQYVKDGKLRYVANIFPYKGYIWNYGTLPQTWEDPHEKDKSTNCFGDNDPIDVCEIGSKILSCGEVIHVKILGILALIDEGETDWKLIAINANDPEASKFHDIDDVKKFKPGYLEATLNWFRLYKVPDGKPENQFAFNGEFKNKAFALEVIKSTHQCWKALLMKKCNGGAINCTNVQISDSPFRCTQEEARSLVESVSSSPNKESNEEEQVWHFLGK [PPA2] | 54.8 °C | 55.1 °C | 0.0395 | -1.33 | -2 | 0.442
MSNSRPRSRRDAGGGAGAAGRDELVSRSLQSAEHCLGVQDFGTAYAHYLLVLSLAPELKHDVKETFQYTLFRWAEELDALSRIQDLLGCYEQALELFPDDEVICNSMGEHLFRMGFRDEAAGYFHKAVKLNPDFSDAKENFYRVANWLVERWHFIMLNDTKRNTIYNAAIQKAVCLGSKSVLDIGAGTGILSMFAKKAGAHSVYACELSKTMYELACDVVAANKMEAGIKLLHTKSLDIEIPKHIPERVSLVVTETVDAGLFGEGIVESLIHAWEHLLLQPKTKGESANCEKYGKVIPASAVIFGMAVECAEIRRHHRVGIKDIAGIHLPTNVKFQSPAYSSVDTEETIEPYTTEKMSRVPGGYLALTECFEIMTVDFNNLQELKSLATKKPDKIGIPVIKEGILDAIMVWFVLQLDDEHSLSTSPSEETCWEQAVYPVQDLADYWIKPGDHVMMEVSCQDCYLRIQSISVLGLECEMDVAKSFTQNKDLLSLGNEAELCSALANLQTSKPDAVEQTCILESTEIALLNNIPYHEGFKMAMSKVLSSLTPEKLYQTMDTHCQNEMSSGTGQSNTVQNILEPFYVLDVSEGFSVLPVIAGTLGQVKPYSSVEKDQHRIALDLISEANHFPKETLEFWLRHVEDESAMLQRPKSDKLWSIIILDVIEPSGLIQQEIMEKAAISRCLLQSGGKIFPQYVLMFGLLVESQTLLEENAVQGTERTLGLNIAPFINQFQVPIRVFLDLSSLPCIPLSKPVELLRLDLMTPYLNTSNREVKVYVCKSGRLTAIPFWYHMYLDEEIRLDTSSEASHWKQAAVVLDNPIQVEMGEELVLSIQHHKSNVSITVKQ [PRMT9] | 50.8 °C | 51.1 °C | -0.0806 | 0.367 | 0.336 | -0.21
MFLPHMNHLTLEQTFFSQVLPKTVKLFDDMMYELTSQARGLSSQNLEIQTTLRNILQTMVQLLGALTGCVQHICATQESIILENIQSLPSSVLHIIKSTFVHCKNSESVYSGCLHLVSDLLQALFKEAYSLQKQLMELLDMVCMDPLVDDNDDILNMVIVIHSLLDICSVISSMDHAFHANTWKFIIKQSLKHQSIIKSQLKHKDIITSLCEDILFSFHSCLQLAEQMTQSDAQDNADYRLFQKTLKLCRFFANSLLHYAKEFLPFLSDSCCTLHQLYLQIHSKFPPSLYATRISKAHQEEIAGAFLVTLDPLISQLLTFQPFMQVVLDSKLDLPCELQFPQCLLLVVVMDKLPSQPKEVQTLWCTDSQVSETTTRISLLKAVFYSFEQCSGELSLPVHLQGLKSKGKAEVAVTLYQHVCVHLCTFITSFHPSLFAELDAALLNAVLSANMITSLLAMDAWCFLARYGTAELCAHHVTIVAHLIKSCPGECYQLINLSILLKRLFFFMAPPHQLEFIQKFSPKEAENLPLWQHISFQALPPELREQTVHEVTTVGTAECRKWLSRSRTLGELESLNTVLSALLAVCNSAGEALDTGKQTAIIEVVSQLWAFLNIKQVADQPYVQQTFSLLLPLLGFFIQTLDPKLILQAVTLQTSLLKLELPDYVRLAMLDFVSSLGKLFIPEAIQDRILPNLSCMFALLLADRSWLLEQHTLEAFTQFAEGTNHEEIVPQCLSSEETKNKVVSFLEKTGFVDETEAAKVERVKQEKGIFWEPFANVTVEEAKRSSLQPYAKRARQEFPWEEEYRSALHTIAGALEATESLLQKGPAPAWLSMEMEALQERMDKLKRYIHTLG [C1ORF112] | 47.9 °C | 48.9 °C | -0.0761 | 0.547 | 1.23 | -0.208
